Test results as given in patent US9926377B2, “Anti-GPC3 antibodies and immunoconjugates” (GENENTECH, INC., priority 2014, dated 2018).
One block for each molecule: values may come before it.

Tests used:
[1] = target: T1, human GPC3 (Homo sapiens, UniProt P51654); test: FACS binding to huGPC truncation constructs on 293 cells; settings: huGPC(aa359-509) on 293 cells
T1 construct: C-terminal glycophosphatidylinositol anchor (GPI link) (C); expressed in transfected cells; host or cells: 293 cells
T1 sequence (P51654 359-509): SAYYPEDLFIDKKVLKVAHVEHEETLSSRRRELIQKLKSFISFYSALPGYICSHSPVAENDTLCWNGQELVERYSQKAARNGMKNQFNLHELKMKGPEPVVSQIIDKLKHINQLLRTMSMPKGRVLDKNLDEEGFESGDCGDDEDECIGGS
From the text: (§1) C-terminal truncation constructs of huGPC(aa359-589) were made to further refine the epitopes for antibodies 4A11 and 15G1. Three different […] truncations were made, comprising amino acids 359 to 420 of human GPC3, amino acids 359 to 470 of human GPC3, and amino acids 359 to 509 of human GPC3. The three C-terminal truncations each comprised an HSV N-terminal signal sequence (SS) and gD sequence (SEQ ID NO: 41) and C-terminal glycophosphatidylinositol anchor (GPI link). The huGPC truncation constructs were expressed on the surface of 293 cells and antibody binding was determined by FACS. An anti-gD was used as a positive control. Vector-transfected 293 cells were used as a negative control.

[2] = target: T2, human GPC3 (Homo sapiens, UniProt P51654); test: as above; settings: huGPC(aa359-559) on 293 cells
T2 construct: C-terminal glycophosphatidylinositol anchor (GPI link) (C); expressed in transfected cells; host or cells: 293 cells
T2 sequence (P51654 359-559): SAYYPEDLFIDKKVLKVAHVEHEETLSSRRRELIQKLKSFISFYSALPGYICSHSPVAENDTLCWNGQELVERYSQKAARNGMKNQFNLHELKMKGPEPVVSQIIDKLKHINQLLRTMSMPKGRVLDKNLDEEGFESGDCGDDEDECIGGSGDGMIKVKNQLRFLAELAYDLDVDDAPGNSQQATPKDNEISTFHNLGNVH
From the text: as §1

[3] = target: T3, human GPC3 (Homo sapiens, UniProt P51654); test: as above; settings: huGPC(aa359-470) on 293 cells
T3 construct: C-terminal glycophosphatidylinositol anchor (GPI link) (C); expressed in transfected cells; host or cells: 293 cells
T3 sequence (P51654 359-470): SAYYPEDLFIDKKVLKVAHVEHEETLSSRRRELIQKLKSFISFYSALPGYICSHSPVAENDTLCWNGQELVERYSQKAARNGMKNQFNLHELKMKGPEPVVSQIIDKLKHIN
From the text: as §1

[4] = target: T4, human GPC3 (Homo sapiens, UniProt P51654); test: as above; settings: huGPC(aa359-420) on 293 cells
T4 construct: C-terminal glycophosphatidylinositol anchor (GPI link) (C); expressed in transfected cells; host or cells: 293 cells
T4 sequence (P51654 359-420): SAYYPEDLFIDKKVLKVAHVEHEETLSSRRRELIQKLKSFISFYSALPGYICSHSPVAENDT
From the text: as §1

[5] = test system: full-length N-terminal gD-tagged cynomolgus monkey GPC3; test: FACS binding to cynomolgus monkey GPC3 on 293 cells; settings: cynomolgus monkey GPC3 expressed on the surface of 293 cells
Protocol: (§2) Antibodies 15G1 and 4A11 were tested for binding to full-length N-terminal gD-tagged cynomolgus monkey GPC3 and full-length N-terminal gD-tagged rat GPC3 expressed on the surface of 293 cells by FACS. Both antibodies bound to cynomolgus monkey GPC3. 15G1, but not 4A11, also bound to rat GPC3. […] The 7H1 epitope is also highly conserved between human, cynomolgus monkey, rhesus macaque, mouse, and rat GPC3, and as discussed above, antibody 7H1 detects human, cynomolgus monkey, rat, and mouse GPC3 by Western blot.

[6] = target: T5, full-length N-terminal gD-tagged rat GPC3 (Rattus norvegicus, UniProt P13265); test: FACS binding to rat GPC3 on 293 cells; settings: rat GPC3 expressed on the surface of 293 cells
T5 construct: full-length N-terminal gD-tagged rat GPC3 expressed on the surface of 293 cells by FACS; gD (N); expressed in transfected cells; host or cells: 293 cells
Protocol: as §2

[7] = target: T6, GPC3 (Homo sapiens, UniProt P51654); test: Western blot binding to C-terminal truncation constructs of human GPC3; set-up: C-terminal glycophosphatidylinositol anchor (GPI link) (C); expressed in transfected cells; host or cells: 293S cells, transient
From the text: (§3) C-terminal truncation constructs of human GPC3 were made to further refine the epitopes for antibodies 7H1 and 4G7. […] The three C-terminal truncations each comprised the GPC N-terminal signal sequence (SS) and C-terminal glycophosphatidylinositol anchor (GPI link). […] See FIG. 7 (Santa Cruz Biotechnology antibody 1G12, which was raised to amino acids 511-580 of human GPC3, was used as a positive control for C-terminal fragment binding). Antibody 7H1 was reformatted as a chimeric antibody with human A118C cysteine-engineered IgG1 and Igκ constant regions (SEQ ID NOs: 42 and 43).

[8] = target: T6, GPC3; test: Western blot detection of human GPC3; type: binding
From the text: (§4) Antibody 7H1 also detects human, cynomolgus monkey, rat, and mouse GPC3 by Western blot.
Target sequence in this assay (P51654 25-554): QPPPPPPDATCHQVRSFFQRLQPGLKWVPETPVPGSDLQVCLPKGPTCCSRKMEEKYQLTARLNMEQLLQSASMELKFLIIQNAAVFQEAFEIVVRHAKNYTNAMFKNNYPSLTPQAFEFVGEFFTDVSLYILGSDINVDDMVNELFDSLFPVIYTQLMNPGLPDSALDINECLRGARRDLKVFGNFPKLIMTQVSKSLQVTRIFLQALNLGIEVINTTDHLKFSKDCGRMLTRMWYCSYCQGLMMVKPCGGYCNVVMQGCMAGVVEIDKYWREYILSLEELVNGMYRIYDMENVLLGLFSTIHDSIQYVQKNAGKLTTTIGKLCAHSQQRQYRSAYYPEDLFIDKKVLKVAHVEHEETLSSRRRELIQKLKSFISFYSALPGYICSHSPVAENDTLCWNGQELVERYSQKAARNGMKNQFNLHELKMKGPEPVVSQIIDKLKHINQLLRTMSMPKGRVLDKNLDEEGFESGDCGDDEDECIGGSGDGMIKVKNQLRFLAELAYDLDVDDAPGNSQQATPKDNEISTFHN

[9] = target: T6, GPC3; test: Binding to GPC3-expressing cells by FACS; set-up: endogenous in cells
From the text: (§5) Positive clones were expanded and re-screened for binding to huGPC3, cynoGPC3, and HepG2 cells by ELISA, FACS, and immunohistochemistry (IHC). Thirteen antibodies were selected and purified, including antibodies 7H1 and 4G7. The heavy and light chain variable region sequences of antibody 7H1 are shown in SEQ ID NOs: 2 and 3, respectively. The heavy and light chain variable region sequences of antibody 4G7 are shown in SEQ ID NOs: 26 and 27, respectively.
as §4
Target sequence in this assay (P51654 25-554): as above

[10] = test system: cynomolgus monkey GPC3; test: Western blot detection of cynomolgus monkey GPC3; type: binding
From the text: as §4

[11] = target: T6, GPC3; test: FACS binding to human GPC3 fragments expressed on 293S cells; set-up: C-terminal glycophosphatidylinositol anchor (GPI link) (C); expressed in transfected cells; host or cells: 293S cells, transient
From the text: as §3

[12] = target: mouse GPC3 (Mus musculus, UniProt Q8CFZ4); test: Western blot detection of mouse GPC3; type: binding
From the text: as §4

[13] = target: T6, GPC3; test: Reactivity by immunohistochemistry (IHC); type: binding; set-up: endogenous in cells
From the text: as §5, §4
Target sequence in this assay (P51654 25-554): as above

[14] = target: rat GPC3 (Rattus norvegicus, UniProt P13265); test: Western blot detection of rat GPC3; type: binding
From the text: as §4

[15] = target: biotinylated GPC3 (Homo sapiens, UniProt P51654); test: Epitope binning competition assay (Octet RED384); type: binding; settings: 7H1 or 4G7 as first saturating antibody 10 μg/ml; competing antibodies 5 μg/ml
Protocol: Epitope binning of anti-GPC3 antibodies was performed using a competition assay. Using the Octet RED384 instrument (ForteBio), biotinylated GPC3 was captured onto Streptavidin biosensors at 10 μg/ml for 600 seconds. Binding of the first antibody to saturation was achieved by adding 10 μg/ml for 600 seconds. The same biosensors were dipped into the competing antibodies at 5 μg/ml and binding was measured for 600 seconds. […] Antibody 7H1 was used as the first saturating antibody. A subsequent experiment was performed using antibody 4G7 as the first saturating antibody.

T5 sequence (P13265 with tags, fused parts or gaps limits assumed): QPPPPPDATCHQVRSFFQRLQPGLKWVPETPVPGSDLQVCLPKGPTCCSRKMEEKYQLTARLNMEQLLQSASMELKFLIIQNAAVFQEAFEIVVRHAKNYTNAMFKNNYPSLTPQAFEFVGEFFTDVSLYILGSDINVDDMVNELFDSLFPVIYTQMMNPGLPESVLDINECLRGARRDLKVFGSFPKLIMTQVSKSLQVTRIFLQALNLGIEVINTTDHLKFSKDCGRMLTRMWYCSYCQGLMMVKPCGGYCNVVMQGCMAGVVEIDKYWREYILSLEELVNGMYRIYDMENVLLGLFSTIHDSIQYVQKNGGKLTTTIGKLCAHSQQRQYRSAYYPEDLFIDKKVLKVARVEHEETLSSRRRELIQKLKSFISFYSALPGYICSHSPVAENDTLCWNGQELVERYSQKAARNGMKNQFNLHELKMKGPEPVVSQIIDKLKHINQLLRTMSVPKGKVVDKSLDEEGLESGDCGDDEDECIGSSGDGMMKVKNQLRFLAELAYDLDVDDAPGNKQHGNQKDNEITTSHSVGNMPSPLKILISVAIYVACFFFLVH
full-length N-terminal gD-tagged cynomolgus monkey GPC3, sequence (as listed by the source): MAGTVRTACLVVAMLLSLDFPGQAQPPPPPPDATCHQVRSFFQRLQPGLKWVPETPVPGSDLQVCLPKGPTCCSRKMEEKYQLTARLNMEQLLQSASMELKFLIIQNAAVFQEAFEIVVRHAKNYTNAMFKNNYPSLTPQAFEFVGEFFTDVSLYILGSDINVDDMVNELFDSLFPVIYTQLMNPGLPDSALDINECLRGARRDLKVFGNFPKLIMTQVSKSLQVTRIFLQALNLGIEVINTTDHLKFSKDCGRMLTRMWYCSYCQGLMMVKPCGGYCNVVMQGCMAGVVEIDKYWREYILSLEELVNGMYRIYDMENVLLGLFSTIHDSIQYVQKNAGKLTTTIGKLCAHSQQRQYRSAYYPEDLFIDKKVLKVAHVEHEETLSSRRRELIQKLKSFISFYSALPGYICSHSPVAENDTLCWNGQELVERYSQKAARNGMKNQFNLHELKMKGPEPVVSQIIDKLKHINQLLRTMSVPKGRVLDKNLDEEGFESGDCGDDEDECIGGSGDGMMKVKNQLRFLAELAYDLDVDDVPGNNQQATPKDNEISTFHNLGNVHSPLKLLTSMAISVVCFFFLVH
mouse GPC3, sequence (Q8CFZ4 25-553): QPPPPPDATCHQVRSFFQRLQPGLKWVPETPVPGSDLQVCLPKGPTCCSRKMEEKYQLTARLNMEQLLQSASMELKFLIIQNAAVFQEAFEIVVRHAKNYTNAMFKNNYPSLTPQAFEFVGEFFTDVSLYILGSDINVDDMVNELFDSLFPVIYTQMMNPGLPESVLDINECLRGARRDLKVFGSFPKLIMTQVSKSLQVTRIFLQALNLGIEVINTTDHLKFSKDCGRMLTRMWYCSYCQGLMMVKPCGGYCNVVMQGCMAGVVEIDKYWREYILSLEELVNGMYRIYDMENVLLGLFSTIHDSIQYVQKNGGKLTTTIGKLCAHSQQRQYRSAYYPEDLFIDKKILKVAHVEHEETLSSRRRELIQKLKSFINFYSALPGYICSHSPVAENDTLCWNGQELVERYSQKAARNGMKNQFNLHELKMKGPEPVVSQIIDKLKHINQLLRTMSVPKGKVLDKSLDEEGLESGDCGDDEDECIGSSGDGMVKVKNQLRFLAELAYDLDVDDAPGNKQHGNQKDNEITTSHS
rat GPC3, sequence (P13265 with tags, fused parts or gaps limits assumed): as the sequence (P13265 with tags, fused parts or gaps limits assumed) above
biotinylated GPC3, sequence (P51654 25-554): as the sequence (P51654 25-554) above
cynomolgus monkey GPC3, sequence (as listed by the source): as the sequence (as listed by the source) above

Binding by FACS [1]: bound | Binding by FACS [2]: bound | Binding by FACS [3]: not | Binding by FACS [4]: not | Binding by FACS [6]: not
B1: 4A11: anti-GPC3 monoclonal antibody; heavy and light chain variable regions SEQ ID NOs: 10 and 11 (antibody, V domains shown)
VH: EVQLQQSAAELARPGASVRMSCRTSGYTFTTYTIHWMKQRPGQGLEWIGYINPNGGYTEYNQKFRDRTTLTADKSSSTAYMQLSSLTSEDSAVYYCTRNFDYWGQGTTLTVSS
VL: DIVMTQSPSSMYASLGERVTITCKASQDINSYLSWFQQKPGKSPKTLIYRVNRLVDGVPSRFSGSGSGQDYSLTISSLEYEDVGIYYCLQYDEFPLTLGAGTKLELK
Binding by FACS [5]: bound

Binding by Western blot ([7]; amino acids 25 to 137 of human GPC3): bind | Binding by Western blot ([7]; amino acids 25 to 247 of human GPC3): bind | Binding by Western blot ([7]; amino acids 25 to 358 of human GPC3): bind | Detection by Western blot [8]: detects | Reactivity by FACS ([9]; 293S cells expressing GPC3): react strongly | Reactivity by FACS ([9]; HepG2 X1 cells): react strongly | Binding by FACS ([11]; N-terminal fragment, amino acids 25 to 358 of human GPC3, on 293S cells): bind | Binding by FACS ([11]; amino acids 25 to 137 of human GPC3, transiently expressed on 293S cells): bind | Binding by FACS ([11]; amino acids 25 to 247 of human GPC3, transiently expressed on 293S cells): bind | Detection by Western blot [12]: detects | Reactivity by IHC ([13]; HepG2 cells): react strongly | Reactivity by IHC ([13]; JHH cells): react strongly | Reactivity by IHC ([13]; cells stably transfected with GPC3): react strongly | Reactivity by IHC ([13]; hepatic cancer tissue microarray): react strongly | Detection by Western blot [14]: detects | Epitope bin [15]: different epitope bins
B2: 7H1: anti-GPC3 monoclonal antibody; heavy and light chain variable regions SEQ ID NOs: 2 and 3 (antibody, V domains shown)
VH: QVQLQQSGPELVKPGASVKISCKASGYTFTDYYINWVKQKPGQGLEWIGWIYPGSGHTECNETFKGKATLTVDTSSSTAYMQLSSLTSEDTAVYFCTRGYYAPMGYFDYWGQGTTLTVSS
VL: DIQMTQSPSSLSASLGERVSLTCRASQEISGYLSWLQQKPDGTIKRLIYAASTLDSGVPKRFSGSRSGSDYSLTISGLESEDFADYYCLQYASYPYTFGGGTKLEIK
Detection by Western blot [10]: detects

Binding by FACS [1]: bound | Binding by FACS [2]: bound | Binding by FACS [3]: bound | Binding by FACS [4]: not | Binding by FACS [6]: bound
B3: 15G1: anti-GPC3 monoclonal antibody; heavy and light chain variable regions SEQ ID NOs: 18 and 19 (antibody, V domains shown)
VH: EVQLLETGGGLVQPGGSRGLSCEGSGFTFSGFWMSWVRQTPGKTLEWIGDINSDGSSINYAPSIKDRFTIFRDNDKSILYLQMTNVRSEDTGTYFCVTTYGDYWGQGTTLTVSS
VL: DIVMTQSQKFMSTSVGDRVSVTCKASQNVGSHVGWYQQKSGQSPKALIYSASNRYIGVPDRFTGSGSGTDFTLTISNVQSEDLAEYFCQQYHIYPYTFGGGTRLEIK
Binding by FACS [5]: bound
